Where no end group is shown, it is not given here.
How the values were obtained:
[1] = target: T1, Anti-CD28 Fab (SEQ ID NOs: 696, 697); assay: phage ELISA on captured anti-CD28 Fab; competitor: CD28 antigen pre-incubated on the Fab
T1 construct: In the phage ELISA the Fab was biotinylated and captured on neutravidin coated plates
T1 sequence (VH, as listed by the source, chain 1 of 2): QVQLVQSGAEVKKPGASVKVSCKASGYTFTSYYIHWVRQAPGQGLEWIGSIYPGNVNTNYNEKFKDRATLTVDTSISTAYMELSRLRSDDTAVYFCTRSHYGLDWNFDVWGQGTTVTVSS
T1 sequence (VL, as listed by the source, chain 2 of 2): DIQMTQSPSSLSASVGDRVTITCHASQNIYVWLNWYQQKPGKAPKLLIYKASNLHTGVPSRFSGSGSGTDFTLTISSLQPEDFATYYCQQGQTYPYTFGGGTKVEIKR
Description: (§1) After panning, phage infected bacteria were plated out and colonies picked into 96 well blocks. Clonal phage was then amplified and separated from bacterial cells via centrifugation.
(§2) Clonal phage were harvested as crude supematants and screened via standard ELISAs. […] Prior to the addition of clonal phage, wells were incubated with blocking buffer and CD28 antigen or blocking buffer alone. Without washing or aspirating, clonal phage supematants were then added to the wells and incubated for a short time. Wells were then washed followed by detection of bound phage using a horse radish conjugated anti-M13 antibody. Clonal phage of interest were then sent for sequence analysis.

[2] = target: T1, Anti-CD28 Fab (SEQ ID NOs: 696, 697); assay: phage ELISA; clonal phage supernatant on biotinylated anti-CD28 Fab captured on neutravidin, anti-M13 HRP detection
Description: as §1, §2

[3] = target: T2, Anti-CD28 Fab (SEQ ID NOs: 696, 697); assay: phage binding ELISA; Fab-coated wells pre-incubated with CD28 antigen as competitor, anti-M13 HRP detection;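 also: crude clonal phage supernatants from panned colonies added to wells after blocking buffer plus CD28 treatment, bound phage measured after a brief incubation and washing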
T2 construct: In the phage ELISA the Fab was biotinylated and captured on neutravidin coated plates
T2 sequence (VH, as listed by the source, chain 1 of 2): as the sequence (VH, as listed by the source, chain 1 of 2) above
T2 sequence (VL, as listed by the source, chain 2 of 2): as the sequence (VL, as listed by the source, chain 2 of 2) above
Description: as §1, §2

[4] = target: T2, Anti-CD28 Fab (SEQ ID NOs: 696, 697); assay: phage binding ELISA; biotinylated anti-CD28 Fab on neutravidin plate, clonal phage supernatant, anti-M13 HRP detection
Description: as §1, §2

[5] = target: Anti-CD28 Fab (SEQ ID NOs: 696, 697); assay: phage binding ELISA on captured anti-CD28 Fab; competitor: CD28 antigen preincubated in the wells
Target sequence in this assay (VH, as listed by the source, chain 1 of 2): as the sequence (VH, as listed by the source, chain 1 of 2) above
Target sequence in this assay (VL, as listed by the source, chain 2 of 2): as the sequence (VL, as listed by the source, chain 2 of 2) above

[6] = target: Anti-CD28 Fab (SEQ ID NOs: 696, 697); assay: phage binding ELISA; biotinylated anti-CD28 Fab on neutravidin plate, clonal phage supernatant, anti-M13 HRP detection
Target sequence in this assay (VH, as listed by the source, chain 1 of 2): as the sequence (VH, as listed by the source, chain 1 of 2) above
Target sequence in this assay (VL, as listed by the source, chain 2 of 2): as the sequence (VL, as listed by the source, chain 2 of 2) above
Description: as §1, §2

[7] = target: T3, Anti-CD28 Fab (SEQ ID NOs: 696, 697); assay: phage ELISA; captured anti-CD28 Fab pre-incubated with CD28 antigen as competitor, anti-M13 HRP;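 also: crude clonal phage supernatants added without washing after CD28 pre-incubation, bound phage detected with HRP anti-M13 antibody, reference wells got blocking buffer lacking CD28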
T3 construct: Biotinylated and captured on neutravidin coated plates in the phage ELISA
T3 sequence (VH, as listed by the source, chain 1 of 2): as the sequence (VH, as listed by the source, chain 1 of 2) above
T3 sequence (VL, as listed by the source, chain 2 of 2): as the sequence (VL, as listed by the source, chain 2 of 2) above
Description: as §1, §2

[8] = target: T3, Anti-CD28 Fab (SEQ ID NOs: 696, 697); assay: phage ELISA; biotinylated anti-CD28 Fab on neutravidin plate, clonal phage supernatant, anti-M13 HRP

Binder: YCEGHMWEYMAKCL [Phage-935]
- Anti-CD28 Fab signal in the presence of CD28 (phage binding ELISA) [1]: 0.13
- Anti-CD28 Fab signal (phage binding ELISA) [2]: 1.64

B1: Phage-930 (Peptide-87 library clone, SEQ ID NO: 1246) (peptide)
peptide: YCEGHIAEYMQKCL
modifications: cysteine pairing not given here; also: displayed fused to phage pIII protein, fusion end and linker not given here
notes: Tested as clonal phage supernatant; not shown: fused to the pIII filament protein of the bacteriophage
- Anti-CD28 Fab signal in the presence of CD28 (phage binding ELISA) [3]: 0.13
- Anti-CD28 Fab signal (phage binding ELISA) [4]: 1.64

B2: Phage-927 (Peptide-87 library clone, SEQ ID NO: 1243) (peptide)
peptide: YCDGHAQEYRLKCL
modifications: cysteine pairing not given here; also: displayed fused to phage pIII protein, fusion end and linker not given here
notes: as for B1
- Anti-CD28 Fab signal in the presence of CD28 (phage binding ELISA) [3]: 0.07
- Anti-CD28 Fab signal (phage binding ELISA) [4]: 1.65

B3: Phage-929 (Peptide-87 library clone, SEQ ID NO: 1245) (peptide)
peptide: YCDGHGPQYIQKCL
modifications: cysteine pairing not given here; also: displayed fused to phage pIII protein, fusion end and linker not given here
notes: as for B1
- Anti-CD28 Fab signal in the presence of CD28 (phage binding ELISA) [3]: 0.07
- Anti-CD28 Fab signal (phage binding ELISA) [4]: 1.64

Binder: YCAGHAPEYMSKCL [Phage-939]
- Anti-CD28 Fab signal in the presence of CD28 (phage binding ELISA) [1]: 0.05
- Anti-CD28 Fab signal (phage binding ELISA) [2]: 1.63

B4: Phage-915 (peptide)
peptide: YCEGHLPQYMRPCL
notes: Peptide-87 library clone, tested as clonal phage supernatant with the peptide fused to the pIII filament of the bacteriophage
- Anti-CD28 Fab signal in the presence of CD28 (phage binding ELISA) [5]: 0.08
- Anti-CD28 Fab signal (phage binding ELISA) [6]: 1.66

B5: Phage-917 (peptide)
peptide: YCDGHSPEYIGKCL
notes: as for B4
- Anti-CD28 Fab signal in the presence of CD28 (phage binding ELISA) [5]: 0.07
- Anti-CD28 Fab signal (phage binding ELISA) [6]: 1.66

Binder: YCEGHSSEYMWKCL [Phage-940]
- Anti-CD28 Fab signal in the presence of CD28 (phage binding ELISA) [1]: 0.09
- Anti-CD28 Fab signal (phage binding ELISA) [2]: 1.63

B6: Phage-926 (Peptide-87 library clone, SEQ ID NO: 1242) (peptide)
peptide: YCDGHSVEYMEKCL
modifications: cysteine pairing not given here; also: displayed fused to phage pIII protein, fusion end and linker not given here
notes: as for B1
- Anti-CD28 Fab signal in the presence of CD28 (phage binding ELISA) [3]: 0.09
- Anti-CD28 Fab signal (phage binding ELISA) [4]: 1.65

Binder: YCEGHSAQYMHKCL [Phage-931]
- Anti-CD28 Fab signal in the presence of CD28 (phage binding ELISA) [1]: 0.06
- Anti-CD28 Fab signal (phage binding ELISA) [2]: 1.64

Binder: YCDGHLDVYRAKCL [Phage-941]
- Anti-CD28 Fab signal in the presence of CD28 (phage binding ELISA) [1]: 0.09
- Anti-CD28 Fab signal (phage binding ELISA) [2]: 1.63

Binder: YCEGHLEQYMQKCL [Phage-942]
- Anti-CD28 Fab signal in the presence of CD28 (phage binding ELISA) [1]: 0.06
- Anti-CD28 Fab signal (phage binding ELISA) [2]: 1.63

Binder: YCAGHSLEYMQKCL [Phage-937]
- Anti-CD28 Fab signal in the presence of CD28 (phage binding ELISA) [1]: 0.07
- Anti-CD28 Fab signal (phage binding ELISA) [2]: 1.63

Binder: YCAGHLPEYMGKCL [Phage-946]
- Phage binding ELISA, Anti-CD28 Fab signal in the presence of CD28 [7]: 0.07
- Phage binding ELISA, Anti-CD28 Fab signal [8]: 1.63

B7: Phage-918 (Peptide-87 library clone, SEQ ID NO: 1234) (peptide)
peptide: YCAGHLPEFMDKCL
modifications: cysteine pairing not given here; also: fused to phage pIII
notes: as for B1
- Anti-CD28 Fab signal in the presence of CD28 (phage binding ELISA) [3]: 0.06
- Anti-CD28 Fab signal (phage binding ELISA) [4]: 1.66

B8: Phage-924 (Peptide-87 library clone, SEQ ID NO: 1240) (peptide)
peptide: YCEGHSLMYMWKCL
modifications: cysteine pairing not given here; also: displayed fused to phage pIII protein, fusion end and linker not given here
notes: as for B1
- Anti-CD28 Fab signal in the presence of CD28 (phage binding ELISA) [3]: 0.08
- Anti-CD28 Fab signal (phage binding ELISA) [4]: 1.65

Binder: YCEGHSWVYMAKCL [Phage-943]
- Anti-CD28 Fab signal in the presence of CD28 (phage binding ELISA) [1]: 0.07
- Anti-CD28 Fab signal (phage binding ELISA) [2]: 1.63

B9: Phage-923 (Peptide-87 library clone, SEQ ID NO: 1239) (peptide)
peptide: YCEGHLAVYMEKCL
modifications: cysteine pairing not given here; also: displayed fused to phage pIII protein, fusion end and linker not given here
notes: as for B1
- Anti-CD28 Fab signal in the presence of CD28 (phage binding ELISA) [3]: 0.12
- Anti-CD28 Fab signal (phage binding ELISA) [4]: 1.65

Binder: YCDGHSEAFMQKCL [Phage-945]
- Phage binding ELISA, Anti-CD28 Fab signal in the presence of CD28 [7]: 0.07
- Phage binding ELISA, Anti-CD28 Fab signal [8]: 1.63

Binder: YCAGHVAEYMAKCL [Phage-933]
- Anti-CD28 Fab signal in the presence of CD28 (phage binding ELISA) [1]: 0.06
- Anti-CD28 Fab signal (phage binding ELISA) [2]: 1.64

B10: Phage-916 (peptide)
peptide: YCEGHLSQYMSKCL
notes: as for B4
- Anti-CD28 Fab signal in the presence of CD28 (phage binding ELISA) [5]: 0.07
- Anti-CD28 Fab signal (phage binding ELISA) [6]: 1.66

B11: Phage-925 (Peptide-87 library clone, SEQ ID NO: 1241) (peptide)
peptide: YCAGHAAEYMTKCL
modifications: cysteine pairing not given here; also: displayed fused to phage pIII protein, fusion end and linker not given here
notes: as for B1
- Anti-CD28 Fab signal in the presence of CD28 (phage binding ELISA) [3]: 0.07
- Anti-CD28 Fab signal (phage binding ELISA) [4]: 1.65

Binder: YCDGHSLEYIGKCL [Phage-944]
- Phage binding ELISA, Anti-CD28 Fab signal in the presence of CD28 [7]: 0.06
- Phage binding ELISA, Anti-CD28 Fab signal [8]: 1.63

Binder: YCDGHDVEYMSKCL [Phage-936]
- Anti-CD28 Fab signal in the presence of CD28 (phage binding ELISA) [1]: 0.05
- Anti-CD28 Fab signal (phage binding ELISA) [2]: 1.64

B12: Phage-922 (Peptide-87 library clone, SEQ ID NO: 1238) (peptide)
peptide: YCDGHSLLYLSKCL
modifications: cysteine pairing not given here; also: fused to phage pIII
notes: as for B1
- Anti-CD28 Fab signal in the presence of CD28 (phage binding ELISA) [3]: 0.07
- Anti-CD28 Fab signal (phage binding ELISA) [4]: 1.65

Binder: YCEGHTAEHMQKCL [Phage-932]
- Anti-CD28 Fab signal in the presence of CD28 (phage binding ELISA) [1]: 0.05
- Anti-CD28 Fab signal (phage binding ELISA) [2]: 1.64

Binder: YCEGHVTEYMQKCL [Phage-949]
- Phage binding ELISA, Anti-CD28 Fab signal in the presence of CD28 [7]: 0.08
- Phage binding ELISA, Anti-CD28 Fab signal [8]: 1.62

Binder: YCEGHDLIYMWKCL [Phage-938]
- Anti-CD28 Fab signal in the presence of CD28 (phage binding ELISA) [1]: 0.06
- Anti-CD28 Fab signal (phage binding ELISA) [2]: 1.63

Binder: YCDGHATEYMQKCL [Phage-934]
- Anti-CD28 Fab signal in the presence of CD28 (phage binding ELISA) [1]: 0.1
- Anti-CD28 Fab signal (phage binding ELISA) [2]: 1.64

Binder: YCAGHLAIYMSKCL [Phage-947]
- Phage binding ELISA, Anti-CD28 Fab signal in the presence of CD28 [7]: 0.08
- Phage binding ELISA, Anti-CD28 Fab signal [8]: 1.63

Binder: YCDGHLSEYMSKCL [Phage-948]
- Phage binding ELISA, Anti-CD28 Fab signal in the presence of CD28 [7]: 0.06
- Phage binding ELISA, Anti-CD28 Fab signal [8]: 1.62

B13: Phage-920 (Peptide-87 library clone, SEQ ID NO: 1236) (peptide)
peptide: YCDGHDVEYMAKCL
modifications: cysteine pairing not given here; also: fused to phage pIII
notes: as for B1
- Anti-CD28 Fab signal in the presence of CD28 (phage binding ELISA) [3]: 0.07
- Anti-CD28 Fab signal (phage binding ELISA) [4]: 1.66

B14: Phage-914 (peptide)
peptide: YCEGHLPMYMIKCL
notes: as for B4
- Anti-CD28 Fab signal in the presence of CD28 (phage binding ELISA) [5]: 0.09
- Anti-CD28 Fab signal (phage binding ELISA) [6]: 1.66

B15: Phage-921 (Peptide-87 library clone, SEQ ID NO: 1237) (peptide)
peptide: YCDGHSEVYMAKCL
modifications: cysteine pairing not given here; also: fused to phage pIII
notes: as for B1
- Anti-CD28 Fab signal in the presence of CD28 (phage binding ELISA) [3]: 0.06
- Anti-CD28 Fab signal (phage binding ELISA) [4]: 1.66

B16: Phage-928 (Peptide-87 library clone, SEQ ID NO: 1244) (peptide)
peptide: YCDGHSAEYLLKCL
modifications: cysteine pairing not given here; also: displayed fused to phage pIII protein, fusion end and linker not given here
notes: as for B1
- Anti-CD28 Fab signal in the presence of CD28 (phage binding ELISA) [3]: 0.07
- Anti-CD28 Fab signal (phage binding ELISA) [4]: 1.65

B17: Phage-919 (Peptide-87 library clone, SEQ ID NO: 1235) (peptide)
peptide: YCDGHSREYMNKCL
modifications: cysteine pairing not given here; also: fused to phage pIII
notes: as for B1
- Anti-CD28 Fab signal in the presence of CD28 (phage binding ELISA) [3]: 0.06
- Anti-CD28 Fab signal (phage binding ELISA) [4]: 1.66
